Test results published in patent publication US20240016956A1.
Several values for one entry are separate records, joined by “and”; a condition that tells them apart may be missing. Identical values can stand only once.

Target: AAV9 capsid (of the vector AAV9.CAG.GFP / AAV9 test virus) (AAV9)
Experiment: cell-based or functional assay

With “IVIG (intravenous immunoglobulin), a purified mix of IgG obtained from thousands of healthy donors” the AAV9 NAb50 Titer in HEK293 cells (fresh IVIG sample) (reciprocal dilution) was 160 and 320.
